Measurements from the supplement of paper PMC10724198.
± gives the standard deviation of the averaged measurements.

Columns and labels:
Saccharomyces cerevisiae [1] = assay: protein stability index of tFT-peptide fusion (C-terminal peptide) (PSI (0-1 scale)); higher = more stable (slower turnover)
Experimental: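 MPS profiling in S. cerevisiae of the tFT-X12 degron library: putative degron peptides plus stable controls, 12 aa, fused to the C-terminus of a sfGFP-mCherry timer. Cells are FACS-sorted into 8 mCherry/sfGFP bins and deep-sequenced. PSI runs from 0 (unstable) to 1 (stable). Backgrounds are wild type, das1Δ and doa10Δ at 30 °C, and wild type, das1Δ, cdc34-1 and cdc53-1 at 37 °C; 2-3 technical replicates each.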

Saccharomyces cerevisiae [2] = assay: as above; settings: genetic background: wild type; temperature: 30 C
[3] = genetic background: cdc34-1, temperature: 37 C
[4] = genetic background: cdc53-1, temperature: 37 C
[5] = genetic background: das1 deletion, temperature: 30 C
[6] = genetic background: das1 deletion, temperature: 37 C
[7] = genetic background: doa10 deletion, temperature: 30 C
[8] = genetic background: wild type, temperature: 30 C
[9] = genetic background: wild type, temperature: 37 C
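Note: PSI is a weighted mean of sequencing reads over stability bins, variants kept only with over 10 reads, mCherry proximal and sfGFP distal, peptide attached via GGGS linker.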

## VIVKSRTTLYIS
Saccharomyces cerevisiae [1]; [3]
  protein stability index: 0.49 ± 0.015
Saccharomyces cerevisiae [1]; [4]
  protein stability index: 0.616 ± 0.0078
Saccharomyces cerevisiae [1]; [5]
  protein stability index: 0.538 ± 0.013
Saccharomyces cerevisiae [1]; [6]
  protein stability index: 0.613 ± 0.0096
Saccharomyces cerevisiae [1]; [7]
  protein stability index: 0.092 ± 0.018
Saccharomyces cerevisiae [1]; [8]
  protein stability index: 0.107 ± 0.018
Saccharomyces cerevisiae [1]; [9]
  protein stability index: 0.193 ± 0.023
Saccharomyces cerevisiae [2]
  protein stability index: 0.155 ± 0.0099

## VIWVLGALASWG
Saccharomyces cerevisiae [1]; [3]
  protein stability index: 0.5892 ± 0.0018
Saccharomyces cerevisiae [1]; [4]
  protein stability index: 0.6304 ± 0.0041
Saccharomyces cerevisiae [1]; [5]
  protein stability index: 0.479 ± 0.035
Saccharomyces cerevisiae [1]; [6]
  protein stability index: 0.632 ± 0.011
Saccharomyces cerevisiae [1]; [7]
  protein stability index: 0.468 ± 0.02
Saccharomyces cerevisiae [1]; [8]
  protein stability index: 0.479 ± 0.0059
Saccharomyces cerevisiae [1]; [9]
  protein stability index: 0.618 ± 0.015
Saccharomyces cerevisiae [2]
  protein stability index: 0.556 ± 0.098

## VKVIILYKIIEV
Saccharomyces cerevisiae [1]; [3]
  protein stability index: 0.353 ± 0.045
Saccharomyces cerevisiae [1]; [4]
  protein stability index: 0.494 ± 0.044
Saccharomyces cerevisiae [1]; [5]
  protein stability index: 0.327 ± 0.029
Saccharomyces cerevisiae [1]; [6]
  protein stability index: 0.5352 ± 0.0045
Saccharomyces cerevisiae [1]; [7]
  protein stability index: 0.29 ± 0.0094
Saccharomyces cerevisiae [1]; [8]
  protein stability index: 0.323 ± 0.027
Saccharomyces cerevisiae [1]; [9]
  protein stability index: 0.549 ± 0.08
Saccharomyces cerevisiae [2]
  protein stability index: 0.381 ± 0.038

## VLAYFCYVVFVI
Saccharomyces cerevisiae [1]; [3]
  protein stability index: 0.306 ± 0.01
Saccharomyces cerevisiae [1]; [4]
  protein stability index: 0.343 ± 0.0056
Saccharomyces cerevisiae [1]; [5]
  protein stability index: 0.27 ± 0.0087
Saccharomyces cerevisiae [1]; [6]
  protein stability index: 0.3896 ± 0.0036
Saccharomyces cerevisiae [1]; [7]
  protein stability index: 0.291 ± 0.0044
Saccharomyces cerevisiae [1]; [8]
  protein stability index: 0.263 ± 0.011
Saccharomyces cerevisiae [1]; [9]
  protein stability index: 0.354 ± 0.0069
Saccharomyces cerevisiae [2]
  protein stability index: 0.314 ± 0.016

## VLCMSIFIVFGI
Saccharomyces cerevisiae [1]; [3]
  protein stability index: 0.197 ± 0.031
Saccharomyces cerevisiae [1]; [4]
  protein stability index: 0.287 ± 0.023
Saccharomyces cerevisiae [1]; [5]
  protein stability index: 0.195 ± 0.024
Saccharomyces cerevisiae [1]; [6]
  protein stability index: 0.352 ± 0.019
Saccharomyces cerevisiae [1]; [7]
  protein stability index: 0.1774 ± 0.0013
Saccharomyces cerevisiae [1]; [8]
  protein stability index: 0.196 ± 0.011
Saccharomyces cerevisiae [1]; [9]
  protein stability index: 0.303 ± 0.011
Saccharomyces cerevisiae [2]
  protein stability index: 0.371 ± 0.052

## VLLLLGGIVCVM
Saccharomyces cerevisiae [1]; [3]
  protein stability index: 0.236 ± 0.01
Saccharomyces cerevisiae [1]; [4]
  protein stability index: 0.227 ± 0.018
Saccharomyces cerevisiae [1]; [5]
  protein stability index: 0.222 ± 0.024
Saccharomyces cerevisiae [1]; [6]
  protein stability index: 0.412 ± 0.0065
Saccharomyces cerevisiae [1]; [7]
  protein stability index: 0.206 ± 0.012
Saccharomyces cerevisiae [1]; [8]
  protein stability index: 0.229 ± 0.018
Saccharomyces cerevisiae [1]; [9]
  protein stability index: 0.395 ± 0.019
Saccharomyces cerevisiae [2]
  protein stability index: 0.327 ± 0.026

## VLLLRRPLLVFS
Saccharomyces cerevisiae [1]; [3]
  protein stability index: 0.0781 ± 0.025
Saccharomyces cerevisiae [1]; [4]
  protein stability index: 0.105 ± 0.037
Saccharomyces cerevisiae [1]; [5]
  protein stability index: 0.149 ± 0.028
Saccharomyces cerevisiae [1]; [6]
  protein stability index: 0.229 ± 0.014
Saccharomyces cerevisiae [1]; [7]
  protein stability index: 0.128 ± 0.017
Saccharomyces cerevisiae [1]; [8]
  protein stability index: 0.148 ± 0.024
Saccharomyces cerevisiae [1]; [9]
  protein stability index: 0.187 ± 0.0061
Saccharomyces cerevisiae [2]
  protein stability index: 0.244 ± 0.021

## VLLVRIFLCWVC
Saccharomyces cerevisiae [1]; [3]
  protein stability index: 0.178 ± 0.013
Saccharomyces cerevisiae [1]; [4]
  protein stability index: 0.256 ± 0.049
Saccharomyces cerevisiae [1]; [5]
  protein stability index: 0.184 ± 0.017
Saccharomyces cerevisiae [1]; [6]
  protein stability index: 0.338 ± 0.0097
Saccharomyces cerevisiae [1]; [7]
  protein stability index: 0.13 ± 0.0046
Saccharomyces cerevisiae [1]; [8]
  protein stability index: 0.118 ± 0.016
Saccharomyces cerevisiae [1]; [9]
  protein stability index: 0.1826 ± 0.001
Saccharomyces cerevisiae [2]
  protein stability index: 0.16 ± 0.039

## VLLYRIAPRLLH
Saccharomyces cerevisiae [1]; [3]
  protein stability index: 0.597 ± 0.079
Saccharomyces cerevisiae [1]; [4]
  protein stability index: 0.6841 ± 0.0027
Saccharomyces cerevisiae [1]; [5]
  protein stability index: 0.6298 ± 0.0035
Saccharomyces cerevisiae [1]; [6]
  protein stability index: 0.735 ± 0.016
Saccharomyces cerevisiae [1]; [7]
  protein stability index: 0.181 ± 0.019
Saccharomyces cerevisiae [1]; [8]
  protein stability index: 0.202 ± 0.023
Saccharomyces cerevisiae [1]; [9]
  protein stability index: 0.4082 ± 0.0026
Saccharomyces cerevisiae [2]
  protein stability index: 0.303 ± 0.03

## VLSLYWLIISRL
Saccharomyces cerevisiae [1]; [3]
  protein stability index: 0.717 ± 0.04
Saccharomyces cerevisiae [1]; [4]
  protein stability index: 0.736 ± 0.0093
Saccharomyces cerevisiae [1]; [5]
  protein stability index: 0.616 ± 0.016
Saccharomyces cerevisiae [1]; [6]
  protein stability index: 0.742 ± 0.012
Saccharomyces cerevisiae [1]; [7]
  protein stability index: 0.446 ± 0.021
Saccharomyces cerevisiae [1]; [8]
  protein stability index: 0.42 ± 0.0056
Saccharomyces cerevisiae [1]; [9]
  protein stability index: 0.566 ± 0.021
Saccharomyces cerevisiae [2]
  protein stability index: 0.4672 ± 0.00061

## VLVSVSLRVCMV
Saccharomyces cerevisiae [1]; [3]
  protein stability index: 0.0542 ± 0.021
Saccharomyces cerevisiae [1]; [4]
  protein stability index: 0.101 ± 0.025
Saccharomyces cerevisiae [1]; [5]
  protein stability index: 0.106 ± 0.03
Saccharomyces cerevisiae [1]; [6]
  protein stability index: 0.206 ± 0.015
Saccharomyces cerevisiae [1]; [7]
  protein stability index: 0.083 ± 0.012
Saccharomyces cerevisiae [1]; [8]
  protein stability index: 0.108 ± 0.024
Saccharomyces cerevisiae [1]; [9]
  protein stability index: 0.178 ± 0.016
Saccharomyces cerevisiae [2]
  protein stability index: 0.162 ± 0.039

## VLVVLRSEVSLS
Saccharomyces cerevisiae [1]; [3]
  protein stability index: 0.286 ± 0.0038
Saccharomyces cerevisiae [1]; [4]
  protein stability index: 0.398 ± 0.022
Saccharomyces cerevisiae [1]; [5]
  protein stability index: 0.227 ± 0.027
Saccharomyces cerevisiae [1]; [6]
  protein stability index: 0.3847 ± 0.0022
Saccharomyces cerevisiae [1]; [7]
  protein stability index: 0.1948 ± 0.0011
Saccharomyces cerevisiae [1]; [8]
  protein stability index: 0.22 ± 0.02
Saccharomyces cerevisiae [1]; [9]
  protein stability index: 0.371 ± 0.0053
Saccharomyces cerevisiae [2]
  protein stability index: 0.284 ± 0.015

## VLVVVAFVALPR
Saccharomyces cerevisiae [1]; [3]
  protein stability index: 0.264 ± 0.0083
Saccharomyces cerevisiae [1]; [4]
  protein stability index: 0.41 ± 0.053
Saccharomyces cerevisiae [1]; [5]
  protein stability index: 0.285 ± 0.015
Saccharomyces cerevisiae [1]; [6]
  protein stability index: 0.485 ± 0.035
Saccharomyces cerevisiae [1]; [7]
  protein stability index: 0.275 ± 0.01
Saccharomyces cerevisiae [1]; [8]
  protein stability index: 0.282 ± 0.032
Saccharomyces cerevisiae [1]; [9]
  protein stability index: 0.461 ± 0.031
Saccharomyces cerevisiae [2]
  protein stability index: 0.372 ± 0.016

## VLWSCCGGVRVR
Saccharomyces cerevisiae [1]; [3]
  protein stability index: 0.587 ± 0.014
Saccharomyces cerevisiae [1]; [4]
  protein stability index: 0.629 ± 0.013
Saccharomyces cerevisiae [1]; [5]
  protein stability index: 0.465 ± 0.023
Saccharomyces cerevisiae [1]; [6]
  protein stability index: 0.65 ± 0.022
Saccharomyces cerevisiae [1]; [7]
  protein stability index: 0.452 ± 0.03
Saccharomyces cerevisiae [1]; [8]
  protein stability index: 0.483 ± 0.0067
Saccharomyces cerevisiae [1]; [9]
  protein stability index: 0.612 ± 0.018
Saccharomyces cerevisiae [2]
  protein stability index: 0.516 ± 0.036

## VLWVYLFLFVIF
Saccharomyces cerevisiae [1]; [3]
  protein stability index: 0.266 ± 0.04
Saccharomyces cerevisiae [1]; [4]
  protein stability index: 0.291 ± 0.033
Saccharomyces cerevisiae [1]; [5]
  protein stability index: 0.248 ± 0.022
Saccharomyces cerevisiae [1]; [6]
  protein stability index: 0.346 ± 0.0079
Saccharomyces cerevisiae [1]; [7]
  protein stability index: 0.235 ± 0.025
Saccharomyces cerevisiae [1]; [8]
  protein stability index: 0.211 ± 0.019
Saccharomyces cerevisiae [1]; [9]
  protein stability index: 0.325 ± 0.019
Saccharomyces cerevisiae [2]
  protein stability index: 0.255 ± 0.05

## VLYSRFPPPLIA
Saccharomyces cerevisiae [1]; [3]
  protein stability index: 0.51169 ± 7.2e-05
Saccharomyces cerevisiae [1]; [4]
  protein stability index: 0.537 ± 0.0073
Saccharomyces cerevisiae [1]; [5]
  protein stability index: 0.43 ± 0.022
Saccharomyces cerevisiae [1]; [6]
  protein stability index: 0.554 ± 0.02
Saccharomyces cerevisiae [1]; [7]
  protein stability index: 0.396 ± 0.0062
Saccharomyces cerevisiae [1]; [8]
  protein stability index: 0.415 ± 0.023
Saccharomyces cerevisiae [1]; [9]
  protein stability index: 0.5375 ± 0.0029
Saccharomyces cerevisiae [2]
  protein stability index: 0.4803 ± 0.0032

## VMWFVLVGLCIL
Saccharomyces cerevisiae [1]; [3]
  protein stability index: 0.4219 ± 0.0041
Saccharomyces cerevisiae [1]; [4]
  protein stability index: 0.449 ± 0.035
Saccharomyces cerevisiae [1]; [5]
  protein stability index: 0.382 ± 0.044
Saccharomyces cerevisiae [1]; [6]
  protein stability index: 0.506 ± 0.021
Saccharomyces cerevisiae [1]; [7]
  protein stability index: 0.366 ± 0.0077
Saccharomyces cerevisiae [1]; [8]
  protein stability index: 0.378 ± 0.018
Saccharomyces cerevisiae [1]; [9]
  protein stability index: 0.496 ± 0.006
Saccharomyces cerevisiae [2]
  protein stability index: 0.473 ± 0.033

## VNTLCCVFRCNL
Saccharomyces cerevisiae [1]; [3]
  protein stability index: 0.96 ± 0.0047
Saccharomyces cerevisiae [1]; [4]
  protein stability index: 0.9524 ± 0.0023
Saccharomyces cerevisiae [1]; [5]
  protein stability index: 0.816 ± 0.013
Saccharomyces cerevisiae [1]; [6]
  protein stability index: 0.889 ± 0.026
Saccharomyces cerevisiae [1]; [7]
  protein stability index: 0.8247 ± 0.0043
Saccharomyces cerevisiae [1]; [8]
  protein stability index: 0.826 ± 0.028
Saccharomyces cerevisiae [1]; [9]
  protein stability index: 0.8905 ± 0.0035
Saccharomyces cerevisiae [2]
  protein stability index: 0.805 ± 0.045

## VPRGAALIFLCF
Saccharomyces cerevisiae [1]; [3]
  protein stability index: 0.574 ± 0.043
Saccharomyces cerevisiae [1]; [4]
  protein stability index: 0.646 ± 0.025
Saccharomyces cerevisiae [1]; [5]
  protein stability index: 0.53 ± 0.036
Saccharomyces cerevisiae [1]; [6]
  protein stability index: 0.6215 ± 0.0013
Saccharomyces cerevisiae [1]; [7]
  protein stability index: 0.449 ± 0.025
Saccharomyces cerevisiae [1]; [8]
  protein stability index: 0.464 ± 0.023
Saccharomyces cerevisiae [1]; [9]
  protein stability index: 0.582 ± 0.0063
Saccharomyces cerevisiae [2]
  protein stability index: 0.517 ± 0.055

## VPRSLYSVLRLA
Saccharomyces cerevisiae [1]; [3]
  protein stability index: 0.525 ± 0.062
Saccharomyces cerevisiae [1]; [4]
  protein stability index: 0.685 ± 0.026
Saccharomyces cerevisiae [1]; [5]
  protein stability index: 0.652 ± 0.044
Saccharomyces cerevisiae [1]; [6]
  protein stability index: 0.714 ± 0.012
Saccharomyces cerevisiae [1]; [7]
  protein stability index: 0.0744 ± 0.01
Saccharomyces cerevisiae [1]; [8]
  protein stability index: 0.0833 ± 0.0025
Saccharomyces cerevisiae [1]; [9]
  protein stability index: 0.11 ± 0.0054
Saccharomyces cerevisiae [2]
  protein stability index: 0.2 ± 0.025
